Measured values reported in paper PMC9118924.

Biological target: arrestin-3 fused to nanoluciferase (UniProt P32121)
Assay: arrestin-3 interaction assay (hGPR84-eYFP with arrestin-3-nanoluciferase), 2-HTP concentration-response
Details: value read at the highest 2-HTP concentration, Log [2-HTP] M = -4; parent: est. 100; read off a plot

| percent of parent | Substance |
| --- | --- |
| 75 % of WT | FLAG-human GPR84-eYFP (from UniProt Q9NQS5) pmCt (the two serine residues of the C-terminal tail converted to alanine; positions not printed legibly) |
| 28 % of WT | FLAG-human GPR84-eYFP (from UniProt Q9NQS5) pmIL3 (all 21 serine and threonine residues of the third intracellular loop converted to alanine; positions not printed legibly) |
| 28 % of WT | FLAG-human GPR84-eYFP (from UniProt Q9NQS5) pmIL3-Ct (all 21 serines/threonines of the third intracellular loop and the two serines of the C-terminal tail converted to alanine; positions not printed legibly) |
